# Values of other authors as cited in PMC3946517.
# Columns and labels:
# [1] = molecular target: preMADH (Paracoccus denitrificans) (UniProt P22619); experiment: stopped-flow kinetics
# [2] = molecular target: quinol MADH (Paracoccus denitrificans) (UniProt P22619); experiment: stopped-flow kinetics
substance,measurement,setting,value
MauG (from UniProt Q51658),Kd,[1],< 1.5 µM
same,Kd,[2],11.2 µM
